Patent publication US20160032292, “Aptamer-Guided Gene Targeting” (Georgia Tech Research Corporation, published 2016)

Columns and labels:
[1] = biological target: T1, I-SceI homing endonuclease (UniProt P03882 P03882:1-235); assay: capillary electrophoresis with LIF; binding affinity about 52.49 uM; binding also seen by EMSA; details: tags: provided by F. Gimble (Purdue University), dialyzed; label: FAM
T1 sequence: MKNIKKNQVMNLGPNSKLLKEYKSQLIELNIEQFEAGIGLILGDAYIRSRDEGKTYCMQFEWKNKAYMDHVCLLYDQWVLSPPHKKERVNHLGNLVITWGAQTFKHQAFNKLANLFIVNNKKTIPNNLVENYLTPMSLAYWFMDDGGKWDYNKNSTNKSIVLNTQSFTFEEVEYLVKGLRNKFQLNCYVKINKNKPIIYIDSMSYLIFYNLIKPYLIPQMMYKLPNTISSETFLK
Experimental: (§1) The protocol for SELEX using capillary electrophoresis (CE) was essentially as described earlier (Berezovski, et al., Nat. Protoc., 1:1359-1369 (2006)), but with a few modifications. Initial calibrations were done with a serial dilution of the aptamer library in RB1. The free DNA run time with 100 nM of the library was determined (FIG. 8A). […] CE was done using a Beckman Coulter (Atlanta, Ga., USA) P/ACE MDQ with laser-induced fluorescence (LIF) detection. The LIF was composed of a 488-nm air-cooled argon ion laser along with an on-board detector. CE runs were carried out with a voltage of 10 kV. The first round of selection began after determination of the collection window based on the bulk affinity analysis. For the initial round of in vitro selection, the DNA library (5 μl at 200 μM) was mixed with 5 μl of selection buffer 3 (SB3) (100 mM Tris-HCl at pH 8.2, 200 mM NaCl and 10 mM MgCl₂) for a final concentration of 100 μM DNA library, 50 mM Tris-HCl at pH 8.2, 100 mM NaCl and 5 mM MgCl₂. This mixture was heated in the BioRad iCycler™ to 94° C. for 1 min, and then cooled to 20° C. at a rate of 0.5° C./s. After the folding of the DNA library, 5 μl of 200 nM I-SceI dissolved in selection buffer 1 (SB1) (50 mM Tris-HCl at pH 8.2, 100 mM NaCl and 5 mM MgCl₂) was added to 5 μl of the DNA-SB3 mixture to make the final volume to 10 μl. […]

[2] = biological target: T2, I-SceI homing endonuclease (expressed in yeast from GAL1-10 promoter) (UniProt P03882 P03882:1-235); assay: cell_activity; gene correction over non-binding C.TRP5.54 (62500 vs 8950 per 1e7 cells); galactose; details: aptamer hairpin at 5' end (predicted)
T2 sequence: T1 sequence
Experimental: (§2) For this experiment, I-SceI was induced 3 h by addition of galactose (final concentration 2%) to the liquid YPLac medium before transformation by oligonucleotides, and cells were plated on selective media containing glucose. Viability after transformation was calculated by plating to glucose-containing synthetic complete medium. Viability after transformation for the I-SceI-containing strains was typically 20-40% both on glucose and galactose. […] The frequency of gene correction is based on the number of transformants relative to 10⁷ viable cells that formed a colony on galactose-containing synthetic complete medium (or glucose-containing synthetic complete medium depending on the transformation experiment). Yeast cell culture and standard molecular biology techniques were used as previously described
Therefore, we removed the primer regions surrounding the I-Sce I aptamer sequence in the bifunctional oligonucleotides, and this also allowed us to extend the sequence length of the gene-correction donor part of the bifunctional molecule. Oligonucleotides that contained the aptamer sequences from A4 or A7 at the 5′ end of a DNA sequence containing 54 bases of homology to restore the disrupted trp5 gene (A4.TRP5.54 and A7.TRP5.54, Table 1) were tested in yeast strains FRO-155/156 and FRO-526/527 (T5B and T5 in FIG. 1) for their capacity to restore the functionality of the trp5 gene. […]

[3] = biological target: T1, I-SceI homing endonuclease; assay: capillary electrophoresis with LIF; binding affinity about 3.16 uM; 50 nM A7, 1 uM I-SceI (FIG. 9D); binding also seen by EMSA; details: tags: provided by F. Gimble (Purdue University), dialyzed; label: 5' FAM; hairpin with 4-nt loop (mfold prediction)
Experimental: as §1

[4] = biological target: T1, I-SceI homing endonuclease; assay: EMSA; negative control; described as non-binding random control; 3 uM I-SceI, Mg2+, Zn2+, gel result not shown; details: tags: provided by F. Gimble (Purdue University), dialyzed; label: 5' 32P
Experimental: The internal region was chosen using a random DNA sequence generator with a specified GC content of 50% (http://www.faculty.ucr.edu/˜mmaduro/random.htm). I-SceI was dialyzed before running the EMSA gels in Run Buffer 1 (RB1), 50 mM Tris-HCl at pH 8.2, as previously described. Bovine serum albumin (BSA) was purchased as a lyophilized powder through Sigma-Aldrich (St. Louis, Mo.) and was greater than 98% pure. BSA stock of 10 mg/ml was made in RB1 buffer.
The buffer conditions used for binding had several components described previously (22). Each reaction consisted of 2 μL 5×EMSA buffer 1 (100 mM Tris-HCl at pH 8.5, 250 mM NaCl, 10 μM ZnCl₂, 10 mM MgCl₂, 10% glycerol), 1 μL BSA (10 mg/ml), 1 μL freshly prepared 20 mM DTT, and 1 μL 100 mM MgCl₂ for a final buffer concentration of 20 mM Tris-HCl, 50 mM NaCl, 2 μM ZnCl₂, […], 1 mg/ml BSA, […], and 2% glycerol. After mixing these components together, 2 μL of dialyzed I-SceI (total of 3 μM) for each reaction was added, bringing the volume to […]. The radiolabeling of the oligonucleotides had varying efficiencies such that the counts per minute (cpm) measurement of the radioactivity for each labeled oligonucleotide was different. […] The radioactivity in the gel was analyzed by Phosphor Imager (Molecular Dynamics—Typhoon Trio Imager™, GE Healthcare Life Sciences, Pittsburgh, Pa.). […]

[5] = biological target: T2, I-SceI homing endonuclease (expressed …); assay: cell_activity; gene correction over C.LEU2.54; BY4742 and 55R5-3C
Experimental: as §2, with “Sequences of oligonucleotides used for repair can be found in Table 1. Cells from each transformation were diluted appropriately and plated to synthetic complete medium lacking the respective amino acid and containing 2% galactose for I-SceI induction, 2 or 0.2% galactose for HO induction or 2% glucose for I-SceI or HO repression. The exception to this is the experiment to determine the position of the aptamer in the targeting DNA sequence (at the 5′ or 3′ end). For” for “For”, “described […]” for “described”

[6] = biological target: T2, I-SceI homing endonuclease (expressed …); assay: cell_activity; gene correction over C.ADE2.54; BY4742 and 55R5-3C
Experimental: as §2, with “Sequences of oligonucleotides used for repair can be found in Table 1. Cells from each transformation were diluted appropriately and plated to synthetic complete medium lacking the respective amino acid and containing 2% galactose for I-SceI induction, 2 or 0.2% galactose for HO induction or 2% glucose for I-SceI or HO repression. The exception to this is the experiment to determine the position of the aptamer in the targeting DNA sequence (at the 5′ or 3′ end). For” for “For”, “described […]” for “described”

[7] = biological target: T2, I-SceI homing endonuclease (expressed …); assay: cell_activity; gene correction over C.TRP1.54; 55R5-3C
Experimental: as §2, with “Sequences of oligonucleotides used for repair can be found in Table 1. Cells from each transformation were diluted appropriately and plated to synthetic complete medium lacking the respective amino acid and containing 2% galactose for I-SceI induction, 2 or 0.2% galactose for HO induction or 2% glucose for I-SceI or HO repression. The exception to this is the experiment to determine the position of the aptamer in the targeting DNA sequence (at the 5′ or 3′ end). For” for “For”, “described […]” for “described”

[8] = biological target: T2, I-SceI homing endonuclease (expressed …); assay: cell_activity; gene correction over C.TRP5.40 (202 vs 13.9); 32-fold with PAGE-purified oligos

In the case of TGAAGGCCAAAACGGCTGAATCGATAGT (ssDNA) [A4], the Kd [1] is reported as 52.5 µM.

B1: A7.TRP5.54 (ssDNA)
DNA: GCGGGCGCTGTTGACAGCGGTCAGGTGGATGGGATGGGAAAAGGGTTTTGATGAAGCTGTCGCGGATCCCACATTCTGGGAAGACTTCAA
B1 was tested, and the activity [2] was 7 fold.

GCGGGCGCTGTTGACAGCGGTCAGGTGGATGGGATG (ssDNA) [A7] was tested, and the Kd [3] was 3.16 µM.

B2: P1-r-P2 (ssDNA)
DNA: CTTCTGCCCGCCTCCTTCCGGTCGGGCACACCTGTCATACCCAATCTCGAGGCCAGACGAGATAGGCGGACACT
B2: no binding [4].

B3: A7.LEU2.54 (ssDNA)
DNA: GCGGGCGCTGTTGACAGCGGTCAGGTGGATGGGATGCGCTTTCATGGCCCTACAACATGAGCCACCATTGCCTATTTGGTCCTTGGATAA
B3 gave an activity [5] of 2 fold.

B4: A7.ADE2.54 (ssDNA)
DNA: GCGGGCGCTGTTGACAGCGGTCAGGTGGATGGGATGGGACATTATACCATTGATGCTTGCGTCACTTCTCAATTTGAAGCTCATTTGAGA
B4 was tested, and the activity [6] was 3 fold.

B5: A7.TRP1.54 (ssDNA)
DNA: GCGGGCGCTGTTGACAGCGGTCAGGTGGATGGGATGGTGGCAAGAATACCAAGAGTTCCTCGGTTTGCCAGTTATTAAAAGACTCGTATT
B5 showed an activity [7] of 2.5 fold.

B6: A7.TRP5.40 (ssDNA)
DNA: GCGGGCGCTGTTGACAGCGGTCAGGTGGATGGGATGGGTTTTGATGAAGCTGTCGCGGATCCCACATTCTGGGAAG
Work on B6 yielded an activity [8] of 15 fold.
